Among the data in PMC2959088 are Ki values, retold here.

The assay has as its target human cathepsin L (human). The assay is described as follows: enzyme inhibition assay (residual activity on the fluorogenic substrate Z-Phe-Arg-MCA); cathepsin B or L (0.3 nM) incubated 5 min at 37°C with varied inhibitor in 100 mM sodium acetate pH 5.5, 2.5 mM DTT; substrate 0.01 mM; triplicate; Ki(app) by non linear regression (GraFit), Ki by Morrison's procedure.

B1: Oryzacystatin-1 (natural protein)
chain: MSSDGGPVLGGVEPVGNENDLHLVDLARFAVTEHNKKANSLLEFEKLVSVKQQVVAGTLYYFTIEVKEGDAKKLYEAKVWEKPWMDFKELQEFKPVDASANA
The molecule B1 gave a Ki of 0.73 nM.
